Data: the nanobody polyreactivity screen of Harvey et al. (2022)

experiment: yeast display, Sf9 membrane polyspecificity reagent, FACS + sequencing; frameworks hold sequencing errors
Summary of the method: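 After 36–48 hours of galactose induction, yeast (Saccharomyces cerevisiae BJ5465) displaying a synthetic nanobody library were stained at 4 °C for 1 hour with 10% biotinylated, detergent-solubilized Sf9 membrane reagent. Streptavidin microbeads enriched the stained cells before FACS sorting into low and high (top ~1%) gates on anti-HA and streptavidin fluorescence. Each clone's polyreactivity label reflects its gate of origin.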

Row | Sequence | polyreactivity (PSR sort gate)
1 | QVQLVESGGGLVQAGGSLRLSCAASGRIFGSYAMGWYRQAPGKERELVATIRRSGGRTYYADSVKGRFTISRDNAKNTVYLQKTSLKPADTAVYYCAKDEWGNIRHERDYWGQGTQVTVSS | low polyreactivity
2 | QVQLVESGGGLVQAGGSLRLSCAASGRIFGSYAMGWYRQAPGKERELVATITFGGGSTYYAESEKGRFTISRDNAKNTVYLQMNSLKPEDTAVYYCAADSGYLGIYGDEYSWGQGTQVTVSS | low polyreactivity
3 | QVQLVESGGGLVQAGGSLRLSCAASGRIFGSYTMGWYRQAPGKERELVAAISWSGGNTYYADSVKGRFTISRDNAKNTVYLLMNSQKPEDTAVYYCNALYYRPPKWYGYWGQGTQVTVSS | high polyreactivity
4 | QVQLVESGGGLVQAGGSLRLSCAASGRIFGTNAMGWYIQAPGKERELVADITSGGSTNYADSVKGRFTISRDNAKNTVYLQMNSLKPEDTAVYYCAADVIGDLRWYRDEYWGQGTQVTVSS | low polyreactivity
5 | QVQLVESGGGLVQAGGSLRLSCAASGRIFGTNAMGWYRQAHGKERELVADITSGGSTNYADSVKGRFTISRDNAKNTVYLQMNSLKPEDTAVSYCAADVIGDLPWYRDEYWGQGTQVTVSS | low polyreactivity
6 | QVQLVESGGGLVQAGGSLRLSCAASGRIFGTYAMGWYRQAPGKERELVASISYSDGSTYADSVKGRFTISRDNAKNTVYLQMNSLKPEDTAVYYCAADVYYYAQSEDGYWGQGTQVTVSS | low polyreactivity
7 | QVQLVESGGGLVQAGGSLRLSCAASGRIFGVNAMGLYRQAPGKERELVAVISSGGSTYYADSVKGRFTISRDNAKNTVYLQMNSLKPEDTAVYYCNAVVGRWFPYNLSDYWGQGTQVTVSS | low polyreactivity
8 | QVQLVESGGGLVQAGGSLRLSCAASGRIFGVYAMGRYRQAPGKERELVAGINGGDSTYYADSVKGRFTISRDNAKNTVYLQMNSLKAEDTAVYYCAAEADESGSNYDYWGQGTQVTVSS | low polyreactivity
9 | QVQLVESGGGLVQAGGSLRLSCAASGRIFGVYAMGWYRQAPGKEREFVARISWHGGRTYYADSVKGRFTISRDNAKNTVYLQMNSLKPEDTAVYYCAADHGYPSRLDYWGQGTQVTVSS | high polyreactivity
10 | QVQLVESGGGLVQAGGSLRLSCAASGRIFGVYAMGWYRQAPGKERELVAAIDSSDASTYYADSVKGRFTISRDNAKNTVYLQMNSLKPEDTAVYYCAADNPAAVYGYDYWGQGTQVTVSS | low polyreactivity
11 | QVQLVESGGGLVQAGGSLRLSCAASGRIFGVYAMGWYRQAPGKERELVAAIDSSDGSTYYADSVKGRFTISRDNAKNTVYLQMNSLKPEDTAVYYCAADTPAAVYGYDYWGQGTQVTVSS | low polyreactivity
12 | QVQLVESGGGLVQAGGSLRLSCAASGRIFGVYAMGWYRQAPGKERELVAAISFSGGRTYYADSVKGRFTISRDNAKNTVYLQMNSLKPEDTAVYYCAVRGYYSFLYSTAYDYWGQGTQVTVSS | low polyreactivity
13 | QVQLVESGGGLVQAGGSLRLSCAASGRIFGVYAMGWYRQAPGKERELVAAISTRGGSTYYADSVKGRFTISRDNAKNTVYLQMNSLKPEDTAVYYCAAKSNNIATMDYWGQGTQVTVSS | low polyreactivity
14 | QVQLVESGGGLVQAGGSLRLSCAASGRIFGVYGMGWYRQAPGKERELVAAISWSGATTYYADSVKGRFTISRDNAKNTVYLQMNSLKPEDTEVYYCAADFGWFYDGLAVWFIRILGVYWGQGTQVTVSS | low polyreactivity
15 | QVQLVESGGGLVQAGGSLRLSCAASGRIFGVYVMGWYRQAPGKERELVAAISWSGSHTYYADSVKGRFTISRDNAKNTVYLQMNSLKPEDTAVYYCNADSYPDYTGPGLDWYDYWGQGTQVTVSS | low polyreactivity
16 | QVQLVESGGGLVQAGGSLRLSCAASGRIFGWYAMGWYRQAPGKERELVAAINWDGTSTDYADSVKGRFTISRDNAKNTVYLQMNSLKPEDTAVYYCAAEGHTAFLVYRVSPLQYDYWGQGTQVTVSS | low polyreactivity
17 | QVQLVESGGGLVQAGGSLRLSCAASGRIFGWYAMGWYRQAPGKERELVAAISGRGGSTFYADSVKGRFTISRDNEKNTVYLQMNSLKPEDTAVYYCNAYSWYGYDYWGQGTQVTVSS | high polyreactivity
18 | QVQLVESGGGLVQAGGSLRLSCAASGRIFGWYAMGWYRQAPGKERELVAAISNDGSTNYADSVKGRFTISRDNAKNTVYLQMNSLKPEDTAVYYCAARFYRSSYGWYGYWGQGTQVTVSS | high polyreactivity
19 | QVQLVESGGGLVQAGGSLRLSCAASGRIFGWYAMGWYRQAPGNEREFVAAITVTGGSTYYADSVKGRCTISRDNAKNTVYLQMNSLKPEDTAVYYCAADRWYTRTGFDYWGQGTQVTVSS | low polyreactivity
20 | QVQLVESGGGLVQAGGSLRLSCAASGRIFGWYAMGWYRQAPGNERELVAAINRGGSTNYADSVKGRFTISRDNAKNTVYLQMNSLKPEDTAVYYCAVRGVHYTAVTNIKYGYGYWGQGTQVTVSS | high polyreactivity

Row | Sequence | polyreactivity (PSR sort gate)
21 | QVQLVESGGGLVQAGGSLRLSCAASGRIFGYNAMGWYRQAPGKERELVAAINSDGSKNYADSVKGRFTISRDNAKNTVYLQMNSLKPEDTAVYYCNKELYPVGDYEYWGQGTQVTVSS | low polyreactivity
22 | QVQLVESGGGLVQAGGSLRLSCAASGRIFGYNAMGWYRQAPGKERELVAAISDDGSTNYADSVKGRFTISRDNAKNTVYLQMNSLKPEDTAVYYCNADITFYTWGWYYIRYEYWGQGTQVTVSS | low polyreactivity
23 | QVQLVESGGGLVQAGGSLRLSCAASGRIFGYNAMGWYRQAPGKERELVAAISGSGGSTYYADSVKGRFTISRDNAKNTVYLQMNSLKPEDTAVYYCATRHGRYPYTLDYWGQGTQVTVSS | low polyreactivity
24 | QVQLVESGGGLVQAGGSLRLSCAASGRIFGYNAMGWYRQAPGKERELVAVITYSGGSTYYADSVKGRFTISRDNAKNTVYLQMNSMIPEDTAVYYCAADYQPYSYFWQGGTRDMDYWGQGTQVTVSS | low polyreactivity
25 | QVQLVESGGGLVQAGGSLRLSCAASGRIFGYNAMVWYRQAPGKERELVAAISYSGGSTYYADSVKGRFTISRDNAKNTVYLQMNSLKPEDTAVYYCATRPGYWRYEYWGQGTQVTVSS | high polyreactivity
26 | QVQLVESGGGLVQAGGSLRLSCAASGRIFGYNTMGWYRQAPGKERELVARISYDVDSTYYADSVKGRFTISRDNAKNTVYLQMNSLKPEDTAVYYCNARRSNLGSYIEYFGFDYWGQGTQVTVSS | low polyreactivity
27 | QVQLVESGGGLVQAGGSLRLSCAASGRIFGYNVMGWYRQAPGKERELVAAISYGGGRTTYADSVKGRFTISRDNAKNTVYLQMNSLKPEDTAVYYCNAGGQHVTLDNGDYWGQGTQVTVSS | high polyreactivity
28 | QVQLVESGGGLVQAGGSLRLSCAASGRIFGYTMGWYRPAPGKERELVAAISKSGGSTYYADSVKGRFTISRDNAKNTVYLQMNSLKPEDTAVYYCNKPQRILYDYWGQGTQVTVSS | high polyreactivity
29 | QVQLVESGGGLVQAGGSLRLSCAASGRIFGYYAIGWYRQAPGKERELVAAITINGGRTYYADSVKGRFTISRDNAKNTVYLQMNSLKPEDTAVYYCTATSRYNRLGYWGQGTQVTVSS | high polyreactivity
30 | QVQLVESGGGLVQAGGSLRLSCAASGRIFGYYAMGWYRQAPGKERELVAAINSGGSTNYADSVKGRFTISRDNAKNTVYLQMNSLKPEDTAVYYCAAGWRYRYFRSRNFYPYYYWGQGTQVTVSS | high polyreactivity
31 | QVQLVESGGGLVQAGGSLRLSCAASGRIFGYYAMGWYRQAPGKERELVAAINWRGGNTNYADSVKGRFTISRDNAKNTVYLQMNSLKPEDTSVYYCNAQVLVRPIQGEYGYWGQGTQVTVSS | low polyreactivity
32 | QVQLVESGGGLVQAGGSLRLSCAASGRIFGYYAMGWYRQAPGKERELVAAIRYSSGRTYYADSVKGRFTISRDNAKNNVYLQMNSLKPEDTAVYYCNAGYLFLRSYPHDYWGQGTQVTVSS | high polyreactivity
33 | QVQLVESGGGLVQAGGSLRLSCAASGRIFGYYAMGWYRQAPGKERELVAAIRYSSGRTYYADSVKGRFTISRDNAKNTVYLQMNSLKPEDTAVYYCNAYSSTYFYNYDYWGQGTQVTVSS | high polyreactivity
34 | QVQLVESGGGLVQAGGSLRLSCAASGRIFGYYAMGWYRQAPGKERELVAAISQGGGSTYADSVKGRFTISRDNAKNTVYLQMNSLKPEDTAVYYCAKRRRTGYGYWGQGTQVTVSS | high polyreactivity
35 | QVQLVESGGGLVQAGGSLRLSCAASGRIFGYYAMGWYRQAPGKERELVAASTSSDASTYYADSVKGRFTISRDNAKNTDYLQMNSLKPEDTAVYYCNADYPTWSYYLSGYYGYWGQGTQVTVSS | low polyreactivity
36 | QVQLVESGGGLVQAGGSLRLSCAASGRIFGYYAMGWYRQAPGKERELVARITKTVGGTYYADSVKGRFTISRDNAKNTVYLQMNSLKPEDTAVYYCAARVWTGNGRSKGAYDYWGQGTQVTVSS | high polyreactivity
37 | QVQLVESGGGLVQAGGSLRLSCAASGRIFGYYAMGWYRQAPGKERELVATINSVGSTNYADSVKGRFTISRDNAKNTVYLQMNSLKPEDTAVYYCATDSAYTFFTYRLWRHGYWGQGTQVTVSS | low polyreactivity
38 | QVQLVESGGGLVQAGGSLRLSCAASGRIFGYYAMGWYRQAPGTERELVASIRRGTRTNYADSVKGRFTISRDNAKNTVYLQMNSLKPEDTAVYYCAATRFQFTTTPWYDYWGQGTQVTVSS | high polyreactivity
39 | QVQLVESGGGLVQAGGSLRLSCAASGRIFGYYTMGWYRQAPGKERELVAAINGRGTSTYYADSVKGRFTISRDNAKNTVYLQMNSLKPEDTAVYYCAAGGWGPTRAYDYWGQGTQVTVSS | high polyreactivity
40 | QVQLVESGGGLVQAGGSLRLSCAASGRIFHKYDMGWYRQAPGKERELVAAITTSGGSTYYADSVKGRFTISRDNAKNTVYLQMNSLKPEDTAVYYCADSWSRRERGFDYWGQGTQVTVSS | high polyreactivity
